The assay has as its target T1, 6x His-SEPT9 (human septin 9, isoform 1 / isoform a) (human, UniProt Q9UHD8-1 1-586).
T1 sequence (looked up): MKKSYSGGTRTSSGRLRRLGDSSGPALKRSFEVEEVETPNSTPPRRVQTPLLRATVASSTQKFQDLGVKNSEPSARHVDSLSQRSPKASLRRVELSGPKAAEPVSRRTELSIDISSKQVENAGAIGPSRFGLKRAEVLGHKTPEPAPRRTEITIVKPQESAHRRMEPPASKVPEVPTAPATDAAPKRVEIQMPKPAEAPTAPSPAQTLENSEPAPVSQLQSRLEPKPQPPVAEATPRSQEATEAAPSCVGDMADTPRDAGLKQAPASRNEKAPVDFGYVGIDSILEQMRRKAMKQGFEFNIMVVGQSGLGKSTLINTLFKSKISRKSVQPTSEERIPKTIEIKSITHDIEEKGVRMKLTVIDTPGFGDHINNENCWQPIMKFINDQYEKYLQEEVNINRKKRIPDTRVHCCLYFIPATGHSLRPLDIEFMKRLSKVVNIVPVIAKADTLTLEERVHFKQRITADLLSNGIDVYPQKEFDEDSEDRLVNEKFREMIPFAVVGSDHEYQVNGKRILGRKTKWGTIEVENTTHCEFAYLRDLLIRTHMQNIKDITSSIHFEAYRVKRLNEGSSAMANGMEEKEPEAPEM
Kind of assay: pull-down.

B1: GST-TSG101 UEV (TSG101 aa 1-145) (domain or fragment, human, UniProt Q99816-1 1-145, looked up)
chain: MAVSESQLKKMVSKYKYRDLTVRETVNVITLYKDLKPVLDSYVFNDGSSRELMNLTGTIPVPYRGNTYNIPICLWLLDTYPYNPPICFVKPTSSMTIKTGKHVDANGKIYLPYLHEWKHPQSDLLGLIQVMIVVFGDEPPVFSRP
Regarding B1, the binding result is on record as “binds”.

The record behind these values is PMC6620605 (Current biology : CB, 2019).
